This note sets out measurements from the DeepSol protein solubility set.

The nature of this series: soluble on expression in E. coli; label from the status in PepcDB or PDB records.
Regarding “MAHHHHHHMLSNVPEEPEKLVREVSDLAEAFITNLKRGKLAAARSGGESLSTAAAVEMADVMSTIVRLFQNAEKDLHSTTIQLLKAGYPAAEVASMQVSRLLILVARTGDAMLRAQFATLFLMNVTRRVLSIVRESAANSKATDAELEDEAKTILNDLASDDEAAVVETPADTSSSSSNRCGMDDSTDPASPSLSAKGMKPALKRDTLVSQPLSRRGLSVRFAGTSTSSEEASGGHMRQLQQHSTSVASDFGGPLLQHTGSIVATEIPGRQLLKRAPSRCEQVLEGGGGEIEFPVRMEIFYQDALDAIDEFKRELEGMTEELCRRSTRQLHSSDTIITLGCSHTIRRYLLEAAQAGHHFKVFILEGAPLPAQATQEFAEALCSRGITAQLLPDSSAYVVMSMCTKVLVGAENVLANGGMLASIGTHVLCAAARHFAVPVLVATTTLKMSPYYPSDQLCTRLVRIARSGAQEMPWSTYGSPEDVWPSPFGVSVSDSGRRLTIHAPVTEYVPPELITLFLTNDSELLPSQIHRIVRANYSDAD”, the “soluble on expression in E. coli” value was “not soluble”.

With “MRKRARIIYNPTSGKELFKRELPDALIKLEKAGYETSAYATEKIGDATLEAERAMHENYDVLIAAGGDGTLNEVVNGIAEKPNRPKLGVIPMGTVNDFGRALHIPNDIMGALDVIIEGHSTKVDIGKMNNRYFINLAAGGQLTQVSYETPSKLKSIVGPFAYYIKGFEMLPQMKAVDLRIEYDGNVFQGEALLFFLGLTNSMAGFEKLVPDAKLDDGYFTLIIVEKSNLAELGHIMTLASRGEHTKHPKVIYEKAKAINISSFTDLQLNVDGEYGGKLPANFLNLERHIDVFAPNDIVNEELINNDHVDDNLIEEMAGDPLEHHHHHH”, the “soluble on expression in E. coli” value is “not soluble”.

“MEKIIVRGGKRLNGTVRVEGAKNAVLPIIAAALLASDGKNVLSEVPVLSDVYTINEVLRHLNAEVVFENNQVTIDASKELNIEAPFEYVRKMRASVQVMGPLLARNGRARIALPGGCAIGSRPIDQHLKGFEAMGAKVQVGNGFVEAYVEGELKGAKIYLDFPSVGATENIMSAATLAKGTTILENAAKEPEIVDLANFLNAMGAKVRGAGTGTIRIEGVDKLYGANHSIIPDRIEAGTFMVAAAITGGDILIENAVPEHLRSITAKMEEMGVKIIEENEGVRVIGPDKLKAVDIKTMPHPGFPTDMQSQMMALLLQADGTSMITETVFENRFMHVEEFRRMNADIKIEGRSVIMNGPNSLQGAEVGATDLRAAAALILAGLVSEGYTRVTELKHLDRGYVDFHKKLAALGATIERVNEKVEEVKEQEVSDLHA”: the “soluble on expression in E. coli” value was “not soluble”.

Consider “MTLSIAHLGPPGTYAEQAAVLYVNWLTKSTGDEATLSPYPTISQSLHAVADGQAHLAVVPVENSIEGSVTTTLDALWQLDSLRIQLALVLPIVHTLISCASGLDKIETVYSHPQALAQCQGWLERFLPTVQIVPSNSTTEALQRLEQETTTAAIASSRAAQLYNLPILATGINDYPENCTRFWVVSQGEADAGYQTSKVPTSHTSLAFSMPANTPGALVKPLQIFAQLGINLSRIESRPTKRSLGEYLFFMDLEADVKESQMQSALAELTIHTEILKILGAYNVLPIGAFT”, for which the “soluble on expression in E. coli” value is “not soluble”.

“MKPLFGKVGVFGVGLLGGSVALGIKERFLAEEVHAYDQDPMALEKVLFLGVADRVHTEVGPWVGELDLGILAAPVGALAELGKALAPWAHPESLWTDVGSVKAKVVAALEGLLPHYLGGHPMAGSERAGVENAHAGLLQNAVWVLTPTERTSPRAREGVRGLVEALGAYPLEMPPGRHDELVARVSHLPYLLAVALNRMVAQSPHRDLLMFLAAGGFRDLTRVASGSPRMSRDMVVENKEALKEAIEELREVLLELEGLLDEPEGLLRAAEEAKRTRDSLPIVRRSLLPEMHDLVVQVPDRPGEIARIATALGEAGVNIKDIEVLTIREAAGALRLSFATREERERARRVLQEAGYRLP”: the “soluble on expression in E. coli” value is given as “soluble”.

With “MAHHHHHHMPGVLRGKGPTRVFLPQPCNHVGNLKIVWKVKLQIYAVQTNFSRVYGAPSDAQPHVICGTKRISDVHQDIACCRILLNGVIAPPVRLQNQPLVFLTKETGDGVGITHCVECRHVSQHILRLKKNIAVNDDSPLLGAAVTNEIHTKPASSHSSADTQMIGH”, the “soluble on expression in E. coli” value was “not soluble”.

With “MITELRPNPYQPRKHFNKEAIQELSASIKEHGILQPLIARKSIKGYEIVAGERRYRAAKEAGLEKVPAVVRQLNEQQMMEFALLENLQREDLNPMEEAMAYQMLMNELNVTQEQLAKCLGKSRPYIANYTRLLSLPSFVQDMIANGQLSMAHGRTLLTIKDEEQLKSLLKRIEKEGLNVRQLEKIVQEINQSVSRETKQVKKERNIFFIERETFLREKFGTDVKIKETKKEKGKIEIEFFNKEDLNRILELLAQKN”, the “soluble on expression in E. coli” value was “not soluble”.

As for “MGSDKIHHHHHHMMTQLSAPTLTKDPLTTQDRQIIATIVNQSDYSKNCKPEDVVTIWISEDDTTVWVKMIHGYARYHKQSFKRAVAEVKASLSAPVKCNHKEERELKQAAEKIGLLGDCDWLSLSVQYYPDKVIGHAGCYTSQKPQLLTPLAEWDFTLPKWNMPAAICPDCGGHGCGNCGYRGTRAEDLCKPVDGYRLTYVGRTDLQTAHNVYLDGEFLGILFKVRNADELWENDPKTYYWRCGDGVRYWSVKEAVEVLSRTTAPIELPQVCRELVAA”, the “soluble on expression in E. coli” value is reported as “not soluble”.

For “MPAENSVEVHRLRKSVGQGEHELSILTGVELVVKRGETIALIGESGSGKSTLLAILAGLDDGSSGEVSLVGKPLHQMDEEARAQLRAQHVGFVFQSFMLIPTLNALENVELPALLRGENSGQSKAGAKALLEQLGLGKRLDHLPAQLSGGEQQRVALARAFNGRPDVLFADEPTGNLDRQTGDKIADLLFSLNREHGTTLILVTHDPALAARCDRRLRLVNGQLQEEA”, the “soluble on expression in E. coli” value is on record as “not soluble”.

As to “MSPETMFFQDEDSRNLATNFIANYLKLWDANRSELMILYQNESQFSMQVDSSHPHLIESGNSGYSGSTDFGYYLNNSRNLTRVSSIKARMAKLSIGQEQIYKSFQQLPKTRHDIIATPELFSMEVYKFPTLNGIMITLHGSFDEVAQPEVDGSASSAPSGPRGGSRYHSGPKHKRIPLSKKSFDRTFVVIPGPNGSMIVASDTLLIRPYTSDFPWKVQK”, the “soluble on expression in E. coli” value was “soluble”.

Regarding “MATLDHLLEELFEACSVFDKFPVSFNRTLIDELVDCLDFEEPTLTVIRKFVRNLDFEGKLAPIRMVIRLLDAAIKNNKFRNEDDLLLEFIQKSEAILSRPRNRLLLQDLFNFYTNPVVFAVREPESWLVVIRWVMNEFADEYLSCFHIDLFVKFICQIPSAAEARRLNIISEAISPDLVGSFSARIIYNYAQDLTIDECNTFVNNFRLSSLGYRWPAIRVLLKMRELHPSLVIPLAPASWTEENRRVDVICRLLFPMDFDTLKMMDVQLENVEALVDSVLDSPVDIDLKEKMLDHMNERQFEKYFDELLSFAKIESNDVNIHVTSALRSLPQHATRQKVAQLFEALGDKILDLALILNLSLAYGSNAFDFPEFEKFKDRYSKLVSDAIKAPVGESNAERIITVLECMKLFPCFLPVKADETAVYLDFSNSLTLNEKGAREVPVKTTGHEKMHVTVLLTARADGYKCRPYVLLPRTRPDKEIAARFKNSLQLSWCNRTFFNDEVTEDYLNTIIGPPFFGKRLLAWDAFRCHISDATKRVLKNLKVDTAVVPGGCTKFVQAPDVYWNSPFKASIRRSYEDWMVHGQKSFTKSNNMRPPSMLQYLEWIENAWNDLPKDLILKSFKGCALTIATDGSEDNQIHCFAPNGSIPSGLDLLNSTRIENSLVDLVQDIGIDESQEEGNESDNSIISVG”, the “soluble on expression in E. coli” value is recorded as “not soluble”.

Regarding “MGSDKIHHHHHHMKLPRFGVEEWLNVHEKNATYDIAGVSIAALSLEELFQLTQQDLNAFFQELGQKKMDYGWIEGSPQFKAEVCKLYKNIQAEQVLQTNGATGANMLALYALIEPEDHVISMYPTYQQLYDIPKSLGAQVDLWQIKEDSKWLPDLDELRQLIRPNTKMICINNAHNPTGAIMDEAYLKELVAIVESCGAYILSDEVYKTFASDKNIPAIVDLYDKGISVDSLSKAYSLPGIRVGWVASNKKVTAVLRDYRDYTMICAGVFDDMLASFALKHRQAIIQRNQEIVVDNLQILQDWLAKEPRAQAILPDHVSTSLIKLNVPMLIETFCLKLLSDYGVLVVPGNRFDIEGHVRLGYCGDTEILKAGLTRLSQCLRQFDEQAKIT”, the “soluble on expression in E. coli” value is “not soluble”.

Regarding “MRAIDLNSDLGESFGAWSMGDDAAMLDIVTSANVACGFHAGDPAGILRTLKAAAAKNVTIGAHVSYPDKVGFGRRNMDVASDELTADVIYQIGSLQGLAKAAGTSVRYVKPHGALYNTIAHDRRQAMAVIEAIRAIDPALVLVALAGSTLIELARSEGLQCIAEAFADRAYTPQGTLVSRREPGAVLHDPELVAQRMLRLVQSGSIEAIDGSLVRIEADSICVHGDSPAAVEMARELRRVLEQASTSLQPFAGKRSLEHHHHHH”, the “soluble on expression in E. coli” value is “not soluble”.

On to “MSLSSERVLSNARVVSAERVFVGSVLLRDGLIAAVDEGRSHLAGAEDLGGDYLLPGLVELHTDNLEKHMTPRPGVDWPSASAVLAHDAQIVSAGITTVFDALSIGDVNPKGKRMQQLPKMLEAIGEAAASGDARADHRLHLRCEVSHPQTLEVFRELVEHPLVQLVSVMDHAPGQRQFARLEKYREYYQGKYHLSDAEMDAFIVEQVANSERYSDAARAAIVDVCQGRGLSVASHDDATLAHVRESAGYGMAIAEFPTTVEAARASHEHGLQVLMGAPNVVRGGSHSGNVAAAQLAGIGVLDILSSDYYPASLLHAALLLAGEHSEYDAIRYDLPRAVAMVSRTPALAAGLTDRGEIRVGLRADLLQARALGNNQPVVRQVWRGGQRVFEGHHHHHH”, for which the “soluble on expression in E. coli” value is listed as “soluble”.

Take “MSLDVLSVSEINAQIKALLEATFLQVRVQGEVSNLTIHKVSGHAYFSLKDSQSVIKCVLFKGNANRLKFALKEGQEVVVFGGISVYVPRGDYQINCFEIEPKDIGSLTLALEQLKEKLRLKGYFDEENKLPKPHFPKRVAVITSQNSAAWADMKKIASKRWPMCELVCINTLMQGEGCVQSVVESIVYADSFHDTKNAFDAIVVARGGGSMEDLYSFNDEKIADALYLAKTFSMSAIGHESDFLLSDLVADLRASTPSNAMEILLPSSDEWLQRLDGFNVKLHRSFKTLLHQKKAHLEHLVASLKRLSFENKHHLNALKLEKLKIALENKTLEFLRFKKTLLEKISTQTLTSPFLQTKTERLNRLENALKLAHANLKLPQFGALVSKNNQAIELEALKRGDKIELSNEKTRASAEILSVDRVEGHHHHHH”: the “soluble on expression in E. coli” value is on record as “soluble”.

With “GMYAVPILNVYDFEVKKDKETSYKSATEDYVNKTMGVEQGVLGLFAATDERDKTTSYIVEIYNDYLAFSNHTKNQASKDFKAVIPQIAEGNLNSAEIDVQIAKDKKIEQNDNTFAVYTVIDVKPENDKEFAEIIKNIVETTFNEEGTLLVYLGTDRRNFNKWCLFEVYKDIDSYLNHRSAKYFKDYITQTKDMIAGKKRAELQVLKIENKGGLDYKKLY”, the “soluble on expression in E. coli” value was “soluble”.

As to “MKNEKIVVLYGGDSPEREVSLKSGKAVLDSLISQGYDAVGVDASGKELVAKLLELKPDKCFVALHGEDGENGRVSALLEMLEIKHTSSSMKSSVITMDKMISKEILMHHRMPTPMAKFLTDKLVAEDEISFPVAVKPSSGGSSIATFKVKSIQELKHAYEEASKYGEVMIEQWVTGKEITVAIVNDEVYSSVWIEPQNEFYDYESKYSGKSIYHSPSGLCEQKELEVRQLAKKAYDLLGCSGHARVDFIYDDRGNFYIMEINSSPGMTDNSLSPKSAAAEGVDFDSFVKRIIEQAQ”, the “soluble on expression in E. coli” value was “not soluble”.

Regarding “MGSDKIHHHHHHMLKDLVREKLLTIMNTKAYTQFNPEQLLQLENEMKIYMKSGDSALTEGNYFFLMEMLFYVLVYRNQDVDAQVVYNTLRDRLGENSYKMVIMKATLLQINGNDKGAIEYLENLLNDDLEYETDFVTYVSIAKKLIAIKTTSKNLSQESVLKEVVALTDKFPLDAELWWYASEIYFEMGQFEKACYCLEQVLCITPFNYACFGRLSETLYYEALRSKKQTKTELLEKALKNALRSVELSELYLKGWALVNIISRELGRNKQNDLIKLSASKLKEISAKSNNKDKITAELILNKI”, the “soluble on expression in E. coli” value is given as “not soluble”.
